# Experimental data published in paper PMC3900572 (The Journal of neuroscience : the official journal of the …, 2010).
# B1: GST-tagged full-length bovine GCAP2 (amino acids 1–204) (natural protein, UniProt P51177 1-204, looked up)
# chain: MGQQFSWEEAEENGAVGAADAAQLQEWYKKFLEECPSGTLFMHEFKRFFKVPDNEEATQYVEAMFRAFDTNGDNTIDFLEYVAALNLVLRGTLEHKLKWTFKIYDKDRNGCIDRQELLDIVESIYKLKKACSVEVEAEQQGKLLTPEEVVDRIFLLVDENGDGQLSLNEFVEGARRDKWVMKMLQMDLNPSSWISQQRRKSAMF
# Target: RIBEYE(B)-MBP (rat, UniProt Q9EQH5-2 564-988)
# Test: pull-down
binder,measurement,value
B1,Kd,2720 nM
